Data as given in patent CN101627111A (CENTOCOR INC, dated 2010).

Molecular target: human tissue factor on HCT 116 human colon carcinoma cells (human, UniProt P13726 33-295)
Experiment: cell-based or functional assay

ADCC potency (EC50 and maximal lysis) against C463-derived CNTO 860: 20 to 60 倍
B1: CNTO 860 produced in YB2/0-derived host cell line C1083B (antibody, human IgG1, kappa, V domains shown)
VH: QVQLVESGGGVVQPGRSLRLSCKASGFNIKDYYMHWVRQAPGKGLEWIGLIDPENGNTIYDPKFQGRFTISADNSKNTLFLQMDSLRPEDTAVYYCARDNSYYFDYWGQGTPVTVSS
VL: DIQMTQSPSSLSASVGDRVTITCKASQDIRKYLNWYQQKPGKAPKLLIYYATSLADGVPSRFSGSGSGTDYTFTISSLQPEDIATYYCLQHGESPYTFGQGTKLEITR
modifications: Fc N-glycan about 40% fucosylated
